Test results taken from patent US20250325630A1, “HOMODIMER FUSION PROTEINS FOR TREATING ATOPIC DERMATITIS” (Intervet Inc., priority 2021, published 2025).
Numbering of substitutions follows the chain as printed.

T1: canine IL-4 (cIL-4) (Canis lupus familiaris, UniProt O77762)
T1 sequence (O77762 25-132): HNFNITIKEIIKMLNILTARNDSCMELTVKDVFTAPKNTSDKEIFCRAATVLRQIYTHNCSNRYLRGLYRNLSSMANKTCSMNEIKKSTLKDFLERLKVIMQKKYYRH

T2: canine IL-13 (cIL-13) (Canis lupus familiaris, UniProt Q9N0W9)
T2 sequence (Q9N0W9 19-131): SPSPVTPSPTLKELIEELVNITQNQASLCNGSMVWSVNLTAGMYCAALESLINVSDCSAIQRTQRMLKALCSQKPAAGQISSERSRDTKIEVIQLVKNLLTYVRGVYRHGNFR

T3: canine IL-13 (canine, UniProt Q9N0W9 19-131, limits assumed, biotin-labeled in the Octet assay (site not stated))
T3 sequence (looked up): T2 sequence (Q9N0W9 19-131)

B1: cIL4Rα-IL13Rα2_ZW1-cFc: bispecific heterodimer of cIL-4Rα-cIgGB-Fc-ZW-A (SEQ ID NO: 18) and cIL-13Rα2-cIgGB-Fc-ZW-B (SEQ ID NO: 20) (protein)
chain 1: VKVLHEPSCFSDYISTSVCQWKMDHPTNCSAELRLSYQLDFMGSENHTCVPENREDSVCVCSMPIDDAVEADVYQLDLWAGQQLLWSGSFQPSKHVKPRTPGNLTVHPNISHTWLLMWTNPYPTENHLHSELTYMVNVSNDNDPEDFKVYNVTYMGPTLRLAASTLKSGASYSARVRAWAQTYNSTWSDWSPSTTWLNYYEPWEQHLPPKRENGRVPRPPDCPKCPAPEMLGGPSVFIFPPKPKDTLLIARTPEVTCVVVDLDPEDPEVQISWFVDGKQMQTAKTQPREEQFNGTYRVVSVLPIGHQDWLKGKQFTCKVNNKALPSPIERTISKARGQAHQPSVYVYPPSREELSKNTVSLTCLIKDFFPPDIDVEWQSNGQQEPESKYRTTPPQLDEDGSYALVSKLSVDKSRWQRGDTFICAVMHEALHNHYTQESLSHSPGK
chain 2: SMLSNAEIKVNPPQDFEIVDPGYLGYLSLQWQPPLFPDNFKECTIEYELKYRNIDSENWKTIITKNLHYKDGFDLNKGIEAKINTLLPAQCTNGSEVRSSWAETTYWTSPQGNRETKIQDMDCVYYNWQYLVCSWKPGMGVHFDTNYQLFYWYEGLDHSAECTDYIKVNGKNMGCRFPYLESSDYKDFYICVNGSSESQPIRPSYFIFQLQNIVKPMPPDYLSLTVKNSEEINLKWNMPKGPIPAKCFIYEIEFTEDGTTWVTTTVENEIQITRTSNESQKLCFLVRSKVNIYCSDDGIWSEWSDEQCWKGDIWKETPKRENGRVPRPPDCPKCPAPEMLGGPSVFIFPPKPKDTLLIARTPEVTCVVVDLDPEDPEVQISWFVDGKQMQTAKTQPREEQFNGTYRVVSVLPIGHQDWLKGKQFTCKVNNKALPSPIERTISKARGQAHQPSVYVLPPSREELSKNTVSLLCLIKDFFPPDIDVEWQSNGQQEPESKYLTWPPQLDEDGSYFLYSKLSVDKSRWQRGDTFICAVMHEALHNHYTQESLSHSPGK
modifications: heterodimer
B2: cIL-13Rα1-cIgGB-Fc (Fc fusion)
chain: GGVAAPTETQPPVTNLSVSVENLCTVIWTWDPPEGASPNCTLRYFSHFDNKQDKKIAPETHRSKEVPLNERICLQVGSQCSTNESDNPSILVEKCTPPPEGDPESAVTELQCVWHNLSYMKCTWLPGRNTSPDTNYTLYYWHSSLGKILQCEDIYREGQHIGCSFALTNLKDSSFEQHSVQIVVKDNAGKIRPSFNIVPLTSHVKPDPPHIKRLFFQNGNLYVQWKNPQNFYSRCLSYQVEVNNSQTETNDIFYVEEAKCQNSEFEGNLEGTICFMVPGVLPDTLNTVRIRVRTNKLCYEDDKLWSNWSQAMSIGENTDPTPKRENGRVPRPPDCPKCPAPEMLGGPSVFIFPPKPKDTLLIARTPEVTCVVVDLDPEDPEVQISWFVDGKQMQTAKTQPREEQFNGTYRVVSVLPIGHQDWLKGKQFTCKVNNKALPSPIERTISKARGQAHQPSVYVLPPSREELSKNTVSLTCLIKDFFPPDIDVEWQSNGQQEPESKYRTTPPQLDEDGSYFLYSKLSVDKSRWQRGDTFICAVMHEALHNHYTQESLSHSPGK
notes: Homodimer; also called cIL-13Rα1-cFc; cIL13Rα1-cFc
B3: cIL4Rα-IL13Rα1_ZW1-cFc: bispecific heterodimer of cIL-4Rα-cIgGB-Fc-ZW-A (SEQ ID NO: 18) and cIL-13Rα1-cIgGB-Fc-ZW-B (SEQ ID NO: 19) (protein)
chain 1: B1 chain 1
chain 2: B2 chain with T475L, R503L, T505W
modifications: heterodimer
B4: cIL-13Rα1-cFc: homodimer of canine IL-13Rα1 ECD, IgGB hinge region and IgGB cFc fusion protein, SEQ ID NO: 6 (protein)
chain: B2 chain
modifications: homodimer

What was measured:
canine IL-4 (cIL-4) = molecular target: T1, canine IL-4 (cIL-4); experiment: Binding kinetics of cFc fusion proteins to canine IL-4 (OCTET HTX)
Experimental: (§1) The binding constants for the cFc fusion proteins provided in Tables 3 and 4 below, were determined using OCTET® HTX. All kinetics measurements were performed by OCTET® HTX using SA® biosensors and DATA ACQUISITION® 12.0 software. 10 μg/mL of biotin-labeled antigen, either canine IL-4 (cIL-4) or canine IL-13 (cIL-13) were loaded onto the SAR biosensors for 120 seconds. Next, the biosensors were placed into 1×pH 7.0 TBS/Casein buffer for 60 seconds for the blocking phase. For the association phase, antigen loaded biosensors were placed into 2-fold serial dilutions from 1 μM down to 15.6 nM of the wild-type, the bispecific, or the FcRn-mutant receptor Fc-fusions that recognized the cIL-4 or cIL-13 antigen in 1×pH 7.0 TBS/Casein buffer for 30 seconds. The last well was buffer alone and that sensor was used for reference sensor subtraction. Finally, the biosensors were placed into 1×pH 7.0 TBS/Casein buffer for 120 seconds for the dissociation phase. The results were then analyzed using Data Analysis 12.0 software and the curves were fitted using a 1:1 binding model.

canine IL-13 (cIL-13) = molecular target: T2, canine IL-13 (cIL-13); experiment: Binding kinetics of cFc fusion proteins to canine IL-13 (OCTET HTX); settings: Table 4, cIL-13; for ka: association rate constant; for kdis: dissociation rate constant
Experimental: as §1

[1] = system: cIL-13 mediated STAT6 phosphorylation; experiment: Inhibition of cIL-13 mediated STAT6 phosphorylation in DH82 cells (AlphaLISA p-STAT6); type: cell-based, canine; settings: for concentration inhibiting 50% of the cIL-13 mediated STAT6 phosphorylation (in words): DH82 cells
Experimental: The ability of the cFc fusion proteins to block the signaling mediated by IL-4 and IL-13, as measured by inhibition of STAT-6 phosphorylation in DH82 cells, were determined as follows:
• 1. Actively growing DH82 cells: Merck Animal Health Lot: 628-011, 24Oct14 • 2. HBSS, 1×: Corning, Catalog 21-022-CM • 3. AlphaLISA p-STAT6 (Tyr641) Assay Kit: Perkin Elmer, Catalog ALSU-PST6-A10K • 4. Recombinant canine IL-4: R&D Systems, Catalog: 752-CL/CF • 5a. cFc fusion protein samples for IL-4 studies • (i) cIL4Rα-cFc • (ii) cIL4Rα-IL13Rα1 ZW1-cFc • (iii) cIL4Rα-IL13Rα2 ZW1-cFc • 5b. cFc fusion protein samples for IL-13 studies: • (i) CIL13Rα1-cFc • (ii) cIL13Rα2-cFc • (iii) cIL4R-IL13Rα1 ZW1-cFc • (iv) cIL4R-IL13Rα2 ZW1-cFc • 6. Perkin Elmer® Envision
• 1. Tissue culture plates were seeded with […] DH82 cells per well (40 μL with the density of 2.5×10^5 cells/mL) and incubated at 37° C. for 2 hours. • 2. The cFc fusion proteins were pre-diluted to 2000 nM (500 nM final concentration in the well) and then 3-fold serially diluted in Hank's Balanced Salt Solution (HBSS). The proteins were added by transferring 20 μL/well to the respective locations on the tissue culture plates containing DH82 cells. • 3. (a) Canine IL-4 was diluted to 10 ng/ml in HBSS (2.5 ng/ml in the well) and 20 μL was added to each well of the plates. The plates were incubated for 15 min at 37° C.; or alternatively • (b) Canine IL-13 was diluted to 20 ng/ml in HBSS (5 ng/ml in the well) and 20 μL was added to each well of the plates. The plates were incubated for 15 min at 37° C. • 4. The plates were removed from the incubator and 20 μL of 4× Lysis buffer from the AlphaLISA® p-STAT-6 Assay Kit was added to each well of the plate. The plate was agitated on a plate shaker with 350 rpm for 10 minutes at room temperature. • 5. The Acceptor Mix was prepared from the AlphaLISA® p-STAT6 Assay Kit and 15 μL per well was added to 30 μL of the cell lysate in 96-well ½ Area Plates. The plates were sealed, agitated for 2 minutes at 350 rpm, and then incubated for 1 hour at room temperature. • 6. The Donor Mix was prepared from the AlphaLISA® p-STAT6 Assay kit under subdued laboratory lighting and 15 μL per well was added to each plate. The plates were sealed, covered with foil, agitated for 2 minutes at 350 rpm, and then incubated for 1 hour at room temperature. • 7. The plates were read using the AlphaScreen settings on the Perkin Elmer® En Vison.

canine IL-13 [2] = molecular target: T3, canine IL-13; experiment: cell-based or functional assay
canine IL-13 [3] = molecular target: T3, canine IL-13; experiment: cell-based or functional assay; remark: listed apart in the source
canine IL-13 [4] = molecular target: T3, canine IL-13; experiment: BLI (Octet); summary table, rounded from Table 4
canine IL-13 [5] = molecular target: T3, canine IL-13; experiment: BLI (Octet HTX), biotin-cIL-13 on SA biosensors, fusion protein in solution, 1:1 fit
Experimental: as §1

Molecule | binding constant (KD) with cIL-4 (canine IL-4 (cIL-4); approximate values) | ka (canine IL-13 (cIL-13)) [M⁻¹ s⁻¹] | kdis (canine IL-13 (cIL-13)) [s⁻¹] | IC50 for cIL-13 mediated STAT6 phosphorylation, fold higher than for cIL-13Rα2-cFc [1] | concentration inhibiting 50% of the cIL-13 mediated STAT6 phosphorylation (in words) [1] | IL-13 IC50 (inhibition of cIL-13 mediated STAT6 phosphorylation in DH82 cells) (canine IL-13 [2]) [nM] | IL-13 (IC50), summary table (canine IL-13 [3]) [nM] | Kd (canine IL-13 [4]) [nM] | Kd (canine IL-13 [5]) [nM] | koff (canine IL-13 [5]) [s⁻¹] | kon (canine IL-13 [5]) [M⁻¹ s⁻¹] | loss in affinity for cIL-4 (KD times higher) relative to unmodified cIL-4Rα-cFc homodimer (canine IL-4 (cIL-4)) | ka (canine IL-4 (cIL-4); Table 3, association rate constant, cIL-4, ND = Binding Not Detected) [M⁻¹ s⁻¹] | kdis (canine IL-4 (cIL-4); Table 3, dissociation rate constant, cIL-4, ND = Binding Not Detected) [s⁻¹]
B1 | undetectable | 32600 | 0.000135 | about 200 fold | well above nanomolar concentrations | – | – | – | – | – | – | – | – | –
B2 | – | – | – | – | – | 18.4 | 20 | 5 | 5.37 | 0.000312 | 58000 | – | – | –
B3 | – | 94400 | 3.91e-05 | about 20 fold | well above nanomolar concentrations | – | – | – | – | – | – | about 10,000 fold | 237000 | 0.00234
B4 | – | 58000 | 0.000312 | – | well above nanomolar concentrations | – | – | – | – | – | – | – | – | –
